According to a protein production outcome set (Wang et al. 2014):

Test: label from the status in PepcDB records
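Also: failed if final PepcDB status was selected cloned or expressed and not failed if soluble or beyond.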

Sequence	protein production
MTNSEVSTDLPDKPTSDNEQPDKATSDKEQLGKPPSDRDLRNPTSRLRARLQLIGGALASIAAIGAIAGGLVGYWTVWKTLRTDVFPDKQQTQREATARPDVAPRLSLVVLPFANLNNDPEQDYFADSITTDLTTDLAQMPGAFVIGRGTAFTFKNKQIDFKTLGKELGIRWAVQGAVRRNGDQIRVNVSLTDAASGRDIWSDRFDGDRTNLAALQDQITGRLARSLNIELMQAESRRSEKDQSRNPDAMDFTMRGWAKFYEPRSKTEIAQAKDLFDRALHLDPDNVDAMIAKAWCLAIAAGFRWSTSMAEDKEIATDLIDRALAKSSSNALAYVVKGDTLRVFGRPEEALPEYDAALEINPNFPIAYAQKGLALILSGRAREAFSPLQLALRLSPKDPIAVSWYYNLCHAHLHLQEYEEATKDCRRVININNAFWYAYVDLVSAYGASGQLEPARQSLTELNKIRPDFTIQWFREFGYGYSSNPQFRREFDEILDGLRKGGVREQ	failed
MLKYQQIATEIETYIEEHQLQQGDKLPVLETLMAQFEVSKSTITKSLELLEQKGAIFQVRGSGIFVRKHKRKGYISLLSNQGFKKDLEDFNVTSKVIELDVRKPTPEAAENLNIGMDEDIYYVKRVRYINGQTLCYEESYYTKSIVTYLNNEIVSHSIFHYIREGLGLKIGFSDLFLHVGQLNEEEAEYLGLEAGLPKLYIESIFHLTNGQPFDYSKISYNYEQSQFVVQANSFLL	not failed
MKIGIVIPAHNEEQHLSACLQSIQQAIQHTGHEQVEILVVLDSCTDQSRSVVESHQVNWIECNFACVGKARDLGIRQLIDQGVIWVACTDADTIVDSDWILCQMLHQPTDAICGVVTLDDLSHLSVQQQQKYLAHYQDSMDHQHIHGANLSFSAEAYIQAGGFEPIPCHEDVSLIEKFIKQCCKVTRSNLVRVTTSSRLNGRAPEGLSYFLKHL	failed
DSVDLCIMEILKDILDLFHGGRVYIFEYDEYYRYQDCTYEVVAEGVLPEIDSLQRIPTDSLPWWRQQTLSGKPVILDSLDQLPKHAKAEYAILSRQNIKSLMITPLIAGEHVWGYMGIDLVKNYRNWNNEDFQWLSSLANIISICIELRKAKDEAVRERSFLRNLFRFMPMGYIRMTMVRDAAGLP	failed
MIFMQTSSYHSVTSVIFDKNTQNHTSIAIWLLICCALVFAMVVVGGVTRLTGSGLSIVEWKPIVGTIPPISQGDWEILLEKYRQIPQYEQINKGMTLDEFKGIFWWEYFHRLLGRLIGLVYFVPFVYFMVRKRVDRVLGTKLLGIFVLGGLQGLMGWYMVMSGLADNVYVSQYRLTAHLGLAFIIYAAMFWVATGLLSPVNTHSADPASVRKLGRFARILTGLIFFMVLSGGLVAGIHAGKAYNTFPLMDGFFIPPALFVLEPWYRNFFDNITTVQFDHRMIAWLLMFTIPLFWFKARQLSLSWSGRLACHLLLIMLCTQVALGITTLLLSVPLTFAAAHQAGAVLLFTAALWVCRKLS	failed
MAAEIHSRPQSSRPVLLSKIEGHQDAVTAALLIPKEDGVITASQDNGAVMEFHVSEDFNKMNFIKTYPAHQNRVSAIIFSLATEWVISTGHDKCVSWMCTRSGNMLGRHFFTSWASCLQYDFDTQYAFVGDYSGQITLLKLEQNTCSVITTLKGHEGSVACLWWDPIQRLLFSGASDNSIIMWDIGGRKGRTLLLQGHHDKVQSLCYLQLTRQLVSCSSDGGIAVWNMDVSREEAPQWLESDSCQKCEQPFFWNIKQMWDTKTLGLRQHHCRKCGQAVCGKCSSKRSSYPVMGFEFQVRVCDSCYDSIKDEDRTSLATFHEGKHNISHMSMDIARGLMVTCGTDRIVKIWDMTPVVGCSLATGFSPH	failed
MTEASAPLIDVDPRLLEVLVCPVTRGPLEYDRAKGELISRAAKLAYPIRDGVPIMLPEEARELEGLEHHHHHH	not failed
MMNDYLNFLDGRVSVRRFDPDAVLPNDLIKDMLEHASYAPSGNNFQPWRVVVVKNKNKQEDLKKLAALQPQVATASAVFLLFGDENAYDLTWWQEFHVQKGIITKDEAAARAERIRQYFDLHPEDKETQGLRLDVGLFAMNLMQVVRVYGYDSVPMRGVDFDAIKTYLDMPNGWEPILMLPVGKALQAGNPHVRKSVAEFAEIIE	not failed
PGEAVGVTIFEMALDELAEKAGLDPLELRLRNIPEEDPETGKPFTSHMLAEALRDGADRFGWSDRRAPGERRQGEWLIGMGMASAVRVNMLHKARVRVTLTGEGALVESSMTDIGTGTYTILTQIVAEMLGLAPDRVRTVLGDTDLPEGSGSGGSIGAASNGSAAFLACEEIRRQIAAGMGCPEEELTLKDGRATCGNRTRDLAEIVTQPLSAEGHFEPGKALKGVRSSTFGAHFAEVAVNEITGEVRVRRMLGAFAAGRILNEKTARSQCLGGMTFGIGMALMEEMVHDRRFGQVVSRDLANYHIPAHADVPALEVHFLEERDSYGGTLQAKGIGELGICGSGAAVLNAIHNACGVRVRDLPATPDKVLDGL	failed
MTAREIAEHPFGTPTFTGRSWPLADVRLLAPILASKVVCVGKNYADHIAEMGGRPPADPVIFLKPNTAIIGPNTPIRLPANASPVHFEGELAIVIGRACKDVPAAQAVDNILGYTIGNDVSARDQQQSDGQWTRAKGHDTFCPVGPWIVTDLAPFDPADLELRTVVNGDVKQHARTSLMIHDIGAIVEWISAIMTLLPGDLILTGTPAGVGPIEDGDTVSITIEGIGTLTNPVVRKGKP	failed
MSTDIDCIVIGAGVVGLAIARALAAGGHEVLVAEAAEGIGTGTSSRNSEVIHAGIYYPADSLKARLCVRGKHLLYEYCAARGVPHQRLGKLIVATSDAEASQLDSIARRAGANGVDDLQHIDGAAARRLEPALHCTAALVSPSTGIVDSHALMLAYQGDAESDGAQLVFHTPLIAGRVRPEGGFELDFGGAEPMTLSCRVLINAAGLHAPGLARRIEGIPRDSIPPEYLCKGSYFTLAGRAPFSRLIYPVPQHAGLGVHLTLDLGGQAKFGPDTEWIATEDYTLDPRRADVFYAAVRSYWPALPDGALAPGYTGIRPKISGPHEPAADFAIAGPASHGVAGLVNLYGIESPGLTASLAIAEETLARLAALEHHHHHH	not failed
MMYTNDNRIVMTLDAGGTNFVFSAIQGGKEIADPVVLPACADCLDKCLGNLVEGFKAIQAGLPEAPVAISFAFPGPADYQAGIIGDLPNFPSFRGGVALGPFLEDIFGIPVFINNDGSLFAYGEALTGVLPEINRRLREAGSTKRYKNLLGVTLGTGFGAGVVIDGELLRGDNAAGGYVWCLRNKKYPEYIVEESVSIRAVMRVYAERSGDAGARTPKEIFEIAEGIRPGNREAAIAAFEELGEMAGDALASAITLIDGLIVIGGGLSGASKYILPVLLKEMNAQTGMMDGARFGRLQKEVYDLDEEKSFAGFARGEAVEVLVPGTNRKVGYDPCKRIGVTFSKQGANRSIAMGAYVFALNHLSK	not failed
MSALRVTSPSVEYVQRPLGLDAAHPRLSWPMASAAPGRRQSAYQVRVASSAAGLSHPDVWDSGKVVSDDSVLVPYAGPPLKPRTRYFWSVRVWDADGGASEWSAPSWWETGLMGASQWSAKWISAPAPLTEAPSLEGSSWIWFPEGEPANSAPAATRWFRRTVDLPDDITGATLAISADNVYAVSVDGAEVARTDLEADNEGWRRPAVIDVLDHVHSGNNTLAVSASNASVGPAGWICVLVLTTASGEKKIFSDASWKSTDHEPADGWREPDFDDSGWPAAKVAAAWGAGPWGRVAPVASAANQLRHEFRLPHKKVSRARLYATALGLYEAHLNGRRVGRDQLAPGWTDYRKRVQYQTYDVTSSVRPGANALAAYVAPGWYAGNVGMFGPHQYGERPALLAQLEVEYADGTSERITSGPDWRAASGPIVSADLLSGETYDARKETAGWTSPGFDDRAWLAVRGADNDVPEQIVAQVDGPVRIAKELPARKVTEPKPGVFVLDLGQNMVGSVRLRVSGDAGTTVRLRHAEVLNPDGTIYTANLRSAAATDTYTLKGQGEETYEPRFTFHGFRYVEVTGFPGKPSTTSVTGRVMHTSAPFTFEFETNVPMLNKLHSNITWGQRGNFLSVPTDTPARDERLGWTGDINVFAPTAAYTMESARFLTKWLVDLRDAQTSDGAFTDVAPAVGNLGNGVAGWGDAGVTVPWALYQAYGDRQVLADALPSVHAWLRYLEKHSDGLLRPADGYGDWLNVSDETPKDVIATAYFAHSADLAARMATELGKDAAPYTDLFTRIRKAFQTAYVASDGKVKGDTQSAYVLTLSMNLVPDALRKAAADRLVALIEAKDWHLSTGFLGTPRLLPVLTDTGHTDVAYRLLHQRTFPSWGYPIDKGSTTMWERWDSIQPDGGFQTPEMNSFNHYAYGSVGEWMYANIAGIAPGRAGYRQVVIRPRPGGEVTSARATFASLHGPVSTRWQQRSGGFVLTCSVPPNTTAEVWIPADHPDRVQHTHGTFVRAEDGCAVFEVGSGSHRFTV	failed
QSVHDIEKTLIRIGVVQWQMRAMNDLEDLLDQAEFFISSLANYKADFALFPEFFNAPLMGLQNDQNSVEAIRFLASFTEEIKNRFSQMAVTYNINIIAGSMPLIEDGKLYNVAYLLQRDGEINAQYKIHITPHEQKDWVIDGGDNVQVFETDAGKVGILICYDSEFPELGRMLAEQGAQIIFVPFWTDTKNGYQRVRICSQSRAIENECYVAIGGSVGNLPRVDNVDIQYAQSAVFSPSDIYFPHDATLTEASANTEMIIFADVDLTKLKQLNTEGSVTNLRHRRLDLYGAFTTPKE	failed
MTAIYIGVMTGTSMDGVDFVAASFDPLHIHATLTLPFEPALRDELMALTLPGDNEIDRMGKADVGLAKLIGHGINMLIEQNHLDRHVIKAIGSHGQTIRHRPEHGFTLQIGDPHIITELTGIPVISDFRRRDMAAGGQGAPLVPAFHQAIFQHSTIHRVILNLGGIANVSLLPAGNPDGVYGFDTGPANILMDAWCERYTGHPYDENGNWAAYGQPIRALLERLQAHEFFSKKPPKSTGREDFNLDWLDDQLADWRNDELEYDELEDTPENVQATLLKLTTRAIKKAIYRSELDTGEVYVCGGGAYNSHLLEQLRWRLRKHHWSVQSTSVLGLSPTWVEATAFAWLAMRFMQQQSANLPSVTGAAGFRILGTITSV	failed
RNRFKWGPASQQILYQAYDRQKNPSKEEREALVEECNRAECLQRGVSPSKAHGLGSNLVTEVRVYNWFANRRKEEAFRQKLAMDAYSSN	not failed
SRSKQKSRRRCFQCQTKLELVQQELGSCRCGYVFCMLHRLPEQHDCTFDHMGRG	not failed
MRIHSIILLLFLLVISPVAGSISITDSTASKFDRYFYEGVRQREQENYAAAFDIFRYCHRLNPNDAALLSELGKLYIAIGRQEEGTRYLEQAYRLYPDNKNYGNILGAVYERQGRADDAVRLYEEMSEQFPSEDELRFKLANMYVQAGEIDKAIYIYNRMEAQNAVNAADASNYAEIRARLYLMTGQTNKALNELRRLCNRFPEVNEFRLKYAGTLLDSEKYDEAYEQLQLIARTDSTSGLYHFAMASYYLGTNEKEAAINEMIKVAADKDVAPEQKLPIILRFIGTDTDEEDAPKKEYNILLEKILASHPTEVDARLFYAELLEMQGDSIHAMEVCRPITEFAPKEERAWKFMLGRAVTGQNHTEVHRISEQARQYLPGVPLFYLYDAISYYIEKKGSEAKHILQEALEHIDAEKDPNGLSDIYSQLGDLAYEENKPEEAFANYEKALELNPRNVGVLNNYAYFLAKEGGDLAKAERMAAQCVKLLPDNAVSLDTYGWVFFLRENYTLAKLYIEKALGLAADNPDADVVEHHGDVLYMLGEKEKAMLEWKRAKEIGGGGSPMLDKKIEQGKYIPEKKK	failed
MLLYIHGFNSSPFSDKAVITARYMAEYHPSLTFHQPQLPNTPKAAMALLQSYVEAAQQANEPLNYIGSSLGGYFASYLAERYGGRAVLVNPAVKPFELFDEFMGPQFNPYTQEHYQVLPEHKREVAEFNTPVIRNPERFLVLLQTGDEVLDYREALHKYHHCQLRIESGGDHSFVGYERYLQTVSQFLH	failed
